Laboratory results reported in patent US20050037969A1 (ARBOR VITA, published 2005).
Ends that are not written are not given here. * marks the point of attachment. Biotin = O=C1N[C@H]2[C@H](CS[C@H]2CCCCC(=O)*)N1

B1: CD138 C-terminal peptide AA18L, biotinylated (peptide)
peptide: Biotin-PKQANGGAYQKPTKQEEFYA
notes: also called CD138 (syndecan-1); CD138 (syndecan)
B2: CC CKR-1R C-terminal peptide AA41L (peptide)
peptide: Biotin-LERVSSTSPSTGEHELSAGF
notes: Only the last four residues are seen in the excerpts

Each binder was assayed against T1, SP short PDZ-GST fusion protein (Homo sapiens (Human), UniProt O43464 350-435) (assay: A/G assays).
T1 construct: The label SP short is not explained in the excerpts
T1 sequence: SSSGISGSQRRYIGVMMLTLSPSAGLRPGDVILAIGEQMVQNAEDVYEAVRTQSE
Biotin-ARHRVTSYTSSSVNVSSNL [CDW128A (IL8RA) C-terminal peptide AA29.1L, biotinylated]: no binding. Biotin-VTSPNKHLGLVTPHKTELV [CD83 C-terminal peptide AA47L, biotinylated]: no binding. Biotin-KDITSDSENSNFRNEIQSLV (also called CD95 (Apo-1/Fas); AAI3L) [CD95 (Fas) C-terminal peptide AA13L, biotinylated]: no binding. Biotin-TTNNNPNSAVNIKKIFTDV [KV1.3 C-terminal peptide AA33L, biotinylated]: no binding. Biotin-KDSRPSFVGSSSGHTSTTL (also called CDW128E (IL8RB)) [CDW128B (IL8RB) C-terminal peptide AA29.2L, biotinylated]: no binding. Biotin-YSATYSELEDPGEMSPPIDL (also called FceRlb; FcεRβI) [FceRIb C-terminal peptide AA25L, biotinylated]: no binding. Biotin-PSWRRSSLSESENATSLTTF (also called CXCR5) [BLR-1 C-terminal peptide AA45L, biotinylated]: no binding. Biotin-TSGTGHNQTRALRASESGI (also called CD97 (CD55L)) [CD97 C-terminal peptide AA14L, biotinylated]: no binding. B1: no binding. Biotin-SVFSIPTLWSPWPPSSSSQL (also called CD3η; CD3-eta) [CD3n C-terminal peptide AA4L, biotinylated]: no binding. B2: no binding. Biotin-ISGTPTSTMVHGMTSSSSVV [Clasp-2 C-terminal peptide AA2L, biotinylated]: no binding.

Each binder was assayed against T2, GST-41.8 kD protein (KIAA0751) PDZ domain fusion protein (Mus musculus (Mouse), UniProt Q9EQZ7 682-763) (assay: A/G plate assays, Table 2 matrix).
T2 construct: also called 41 kd; hypoth; not shown: glutathione S-transferase encoded by vector pGEX-3X (Pharmacia)
T2 sequence: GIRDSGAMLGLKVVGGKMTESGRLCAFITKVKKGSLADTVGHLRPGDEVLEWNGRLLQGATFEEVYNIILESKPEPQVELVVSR
Biotin-TTNNNPNSAVNIKKIFTDV [KV1.3 C-terminal peptide AA33L, biotinylated]: binds. Biotin-KDSRPSFVGSSSGHTSTTL (also called CDW128E (IL8RB)) [CDW128B (IL8RB) C-terminal peptide AA29.2L, biotinylated]: binds. Biotin-TSGTGHNQTRALRASESGI (also called CD97 (CD55L)) [CD97 C-terminal peptide AA14L, biotinylated]: binds.

Each binder was assayed against T3, GST-RGS12 PDZ domain fusion protein (human, UniProt O14924 17-85) (assay: A/G plate assays, Table 2 matrix).
T3 construct: also called human regulator of G-protein signalling 12; not shown: glutathione S-transferase encoded by vector pGEX-3X (Pharmacia)
T3 sequence: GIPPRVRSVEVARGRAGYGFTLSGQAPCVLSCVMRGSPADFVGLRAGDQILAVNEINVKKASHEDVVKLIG
Biotin-TTNNNPNSAVNIKKIFTDV [KV1.3 C-terminal peptide AA33L, biotinylated]: binds.

What follows are binders tested against T4, GST-TIAM1 PDZ domain fusion protein (Homo sapiens (Human), UniProt Q13009 845-931) (assay: A/G plate assays, Table 2 matrix).
T4 construct: also called TLAM1; T-lymphoma invasion and metastasis inducing protein 1; not shown: glutathione S-transferase encoded by vector pGEX-3X (Pharmacia)
T4 sequence (Q13009 other isoform, or with tags, fused parts or gaps): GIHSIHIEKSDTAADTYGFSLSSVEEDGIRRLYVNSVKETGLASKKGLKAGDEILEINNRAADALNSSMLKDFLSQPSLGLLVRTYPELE
B1: binds.

Each binder was assayed against T5, KIAA0807 (PDZ domain)-GST fusion protein (human, UniProt Q6P0Q8 1104-1192) (assay: A/G plate assays, Table 2 matrix).
T5 construct: also called K807; KIAA807; not shown: glutathione S-transferase encoded by vector pGEX-3X (Pharmacia)
T5 sequence: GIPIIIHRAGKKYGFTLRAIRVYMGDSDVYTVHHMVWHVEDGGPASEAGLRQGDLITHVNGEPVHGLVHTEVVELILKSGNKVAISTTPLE
Biotin-TTNNNPNSAVNIKKIFTDV [KV1.3 C-terminal peptide AA33L, biotinylated]: binds. Biotin-KDSRPSFVGSSSGHTSTTL (also called CDW128E (IL8RB)) [CDW128B (IL8RB) C-terminal peptide AA29.2L, biotinylated]: binds. Biotin-SVFSIPTLWSPWPPSSSSQL (also called CD3η; CD3-eta) [CD3n C-terminal peptide AA4L, biotinylated]: binds.

Each binder was assayed against T6, GST-PSD95 fusion protein (PDZ domains 1-3) (human, UniProt P31016 56-395 (rat entry)) (assay: A/G plate assays, Table 2 matrix).
T6 construct: also called human post-synaptic density protein 95; not shown: glutathione S-transferase encoded by vector pGEX-3X (Pharmacia)
T6 sequence (P31016 other isoform, or with tags, fused parts or gaps): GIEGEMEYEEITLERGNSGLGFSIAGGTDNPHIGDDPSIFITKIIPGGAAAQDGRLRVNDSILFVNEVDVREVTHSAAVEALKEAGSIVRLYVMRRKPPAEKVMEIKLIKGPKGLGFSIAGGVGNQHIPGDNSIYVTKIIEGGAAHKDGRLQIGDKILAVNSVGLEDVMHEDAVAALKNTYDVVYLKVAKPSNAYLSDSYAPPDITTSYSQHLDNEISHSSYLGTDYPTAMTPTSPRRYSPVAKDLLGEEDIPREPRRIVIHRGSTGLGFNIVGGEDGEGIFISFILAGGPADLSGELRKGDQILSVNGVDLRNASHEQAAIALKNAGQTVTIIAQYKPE
Biotin-KDSRPSFVGSSSGHTSTTL (also called CDW128E (IL8RB)) [CDW128B (IL8RB) C-terminal peptide AA29.2L, biotinylated]: binds. Biotin-SVFSIPTLWSPWPPSSSSQL (also called CD3η; CD3-eta) [CD3n C-terminal peptide AA4L, biotinylated]: binds.

These binders were tested against T6, GST-PSD95 fusion protein (PDZ domains …) (assay: G assay: biotinylated peptide on plate-bound GST-PDZ fusion, OD 450 nm).
Biotin-ARHRVTSYTSSSVNVSSNL [CDW128A (IL8RA) C-terminal peptide AA29.1L, biotinylated]: no binding. Biotin-YSATYSELEDPGEMSPPIDL (also called FceRlb; FcεRβI) [FceRIb C-terminal peptide AA25L, biotinylated]: no binding. Biotin-PSWRRSSLSESENATSLTTF (also called CXCR5) [BLR-1 C-terminal peptide AA45L, biotinylated]: no binding. Biotin-TSGTGHNQTRALRASESGI (also called CD97 (CD55L)) [CD97 C-terminal peptide AA14L, biotinylated]: no binding. B1: no binding. B2: no binding.

These binders were tested against T6, GST-PSD95 fusion protein (PDZ domains …) (assay: G assay: biotinylated peptide on plate-bound GST-PDZ fusion, streptavidin-HRP, OD 450 nm).
Biotin-VTSPNKHLGLVTPHKTELV [CD83 C-terminal peptide AA47L, biotinylated]: binds. Biotin-TTNNNPNSAVNIKKIFTDV [KV1.3 C-terminal peptide AA33L, biotinylated]: binds.

These binders were tested against T2, GST-41.8 kD protein (KIAA0751) PDZ … in the same assay as above.
Biotin-KDITSDSENSNFRNEIQSLV (also called CD95 (Apo-1/Fas); AAI3L) [CD95 (Fas) C-terminal peptide AA13L, biotinylated]: binds. B1: binds. Biotin-SVFSIPTLWSPWPPSSSSQL (also called CD3η; CD3-eta) [CD3n C-terminal peptide AA4L, biotinylated]: binds.

The binders below were run against T6, GST-PSD95 fusion protein (PDZ domains …) (assay: G assay titration of biotinylated peptide on plate-bound GST-PDZ, apparent affinity from saturation fit).
In the case of Biotin-KDITSDSENSNFRNEIQSLV (also called CD95 (Apo-1/Fas); AAI3L) [CD95 (Fas) C-terminal peptide AA13L, biotinylated], the Kd is reported as 85 µM. Binder Biotin-ISGTPTSTMVHGMTSSSSVV [Clasp-2 C-terminal peptide AA2L, biotinylated] has a Kd of 45 µM.

These binders were tested against T2, GST-41.8 kD protein (KIAA0751) PDZ … (assay: G assay: biotinylated peptide on plate-bound GST-PDZ fusion, OD 450 nm; no GST-alone bar on the sheet).
Biotin-ARHRVTSYTSSSVNVSSNL [CDW128A (IL8RA) C-terminal peptide AA29.1L, biotinylated]: no binding. Biotin-VTSPNKHLGLVTPHKTELV [CD83 C-terminal peptide AA47L, biotinylated]: no binding. Biotin-YSATYSELEDPGEMSPPIDL (also called FceRlb; FcεRβI) [FceRIb C-terminal peptide AA25L, biotinylated]: no binding. Biotin-PSWRRSSLSESENATSLTTF (also called CXCR5) [BLR-1 C-terminal peptide AA45L, biotinylated]: no binding. B2: no binding.
